Reference: the RNAGym collection of RNA variant scans (doi:10.1073/pnas.2313332121)

B1: TPR t1 (parent)
chain: GACCAAUCUGCCCUCAGAGCUCGAGAACAUCUUCGGAUGCAGAGGAGGCAGGCUUCGGUGGCGCGAUAGCGCCAACGUCCUCAACCUCCAAUGCAUCCCACCACAUGAUGAUGCCUGAAGAGCCUUGGUUUUUUG

Variants of: B1
Assay: polymerase ribozyme fitness, log enrichment relative to wild type (log ratio); higher = more active; in vitro selection for triplet polymerase activity
Method in brief: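 Streptavidin-bead capture of gel-excised extended constructs, followed by RT-PCR, closed a single triplicate in vitro selection round. That round began by annealing PCR-built, transcribed mutant libraries of each subunit of a heterodimeric triplet polymerase ribozyme with a biotinylated primer, the partner subunit and triplets, then incubating them frozen at −7 °C. After Illumina sequencing of inputs and outputs, genotypes needed ≥10 input reads and ≥1 read per output. Fitness is the base-2 logarithm of genotype enrichment over wild-type enrichment, using inverse-variance-weighted replicate averages.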

Variant	polymerase ribozyme fitness (log ratio)
G51A U87A C101A	-4.9
C13U C76A	-0.633
G19U A43U G122A C124A	-2.23
C13A G47A	-2.5
C72G C82G	-1
G52A C82U A90C G117C	-3.56
C20G G69U C99U	-5.06
C40U A41C C56A C114A	-2.89
U9G A103U U126A G127C	-5.16
U7G A41G C53A C72G C79U A90U A111C	-2.28
C12A C62U	-0.927
G42C G71U	-2.39
A2C A100C U109A	-6.4
A41C C101A G120C	-1.45
G61U A66C C114A	-2.88
C11G C13G G45A G117A	-1.92
G42A C79G G113A	-4.19
G48A C53A U59G G61C C79U C101A U126A	-3.84
A29U G71U	-1.99
C56A U92A	-3.75
A2G G39U C115A	-1.93
G47C C70U	-2.2
C12U G45U G77C	-0.677
A26U C62U U129A	-5.15

Variant	polymerase ribozyme fitness (log ratio)
C70U A90G	-0.454
G17C G48A C80U A83C A95G C123G	-6.14
G42A	-1.69
G17C A37U C64U U92A	-5.44
A6G U87A U92C A95C C114U	-3.66
C20G A43U	-3.89
C22U A90G C101A C114A	-5.96
U14A A37U G93U U132A	-4.47
G42A G44U C53A U55A G127C	-3.14
A6G G39A C123U U133A	0.797
A18U C85U C94G	-5.59
G10A G44U U54C G63A C70A U130C	-4.01
C72U C102A G120U U130G	-2.46
C8U C94A	-0.617
G47C U125A	-2.59
A27U C76U A100U G120C	-3.8
A26G C89G C102U U112A G120A	-5.43
C49A C72G	-0.887
U32A C40G C56A A84U	-6.15
C70U A105G G113A	-4.28
C15U C22G U54G G71U G93A G122A C123U	-4.87
C53U G71C C82G	-0.812
C20U G52A C124U	0.255
G42U U55G G117A	-3.02

Variant	polymerase ribozyme fitness (log ratio)
C53A G63U	-1.77
G39A U78C	-1.06
C3U C86A	-0.57
U9G C22G U81C	-3.31
G63A G113C	-2.53
U7A U9C C12U G57C G63U	-0.748
C53U A103U U116C G117U A118C	-5.82
C62U A66G A100U	-2.66
C3U G39U C73A C98U	-2.51
G93C C102A U116G	-5.28
G36U C64U A119G	0.0711
C3A G61A C79U	-1.27
U14A C115U	-3.52
C20U G52A C70U G120A	-1.85
G44U G69A C76A G120C	-6.09
A27U U87C	-2.89
G61C U87A C102A	-5.28
A2U C64U C115G C124U	-4.43
G93C U109A G117U G120C	-6.83
C13G G52U A75G	-3.6
C20U G23A G61A U112A G113A G122C U130C	-6.32
U14G C73U	-1.04
C28U G77A U112G U125A	-3.35
G60C A74U U81G C115A	-3.12

Variant	polymerase ribozyme fitness (log ratio)
U55A C56A	-0.0197
C8G U92A	-1.78
U33G C82U A83C	-6.87
C8G A121G	1.62
C53G U125A	-2.2
C97G A121U	-2.07
A5C C12A C73U	-0.891
G39U G113A U132A	-2.47
G117U A119U	-3.92
U9G C15A G58A C97U U116G U129G	-5.21
C72U A91C G93U U126G	-4.23
U78A G122A	-1.42
C88U U129C	-0.178
G48U C49G G63U	-1.73
A5C G52U	-2.8
C49U G60C A103C U112A C123G	-4.76
A18G C124U	-0.797
C20U C40G A46C G60U A75C	-4.1
C11G G25C G39A C56A U67G C72A C82A A111C	-6.95
C56A G57U U78C G113C	-3.22
C12A U14G G71U	-2.39
G48A U96A C104U U131A	-1.66
C3U C12G A46C	-0.734
A18U A41C	-2.34

Variant	polymerase ribozyme fitness (log ratio)
A5C A26U G36A C88U	-6.38
C8A U32A A90G	-4.24
C12U A27G C40U C56U C79A U81A C124U	-2.87
G45A C62U	-0.924
U21A C72A U125G	-0.653
C22A U55C	-4.37
C15G C56U U87A C115U U131C	-0.823
C114A U125A	-1.73
C13A C20U C72U	-2.59
U32A G42A U54C U116C G128A	-6.04
C11G G63C U96A	-0.969
G44U G135U	-2.86
A41C C70G U78C	-5.64
C11G C31U U55C A90G	-4.94
C8G C20A C82U A100C U112C	-3.16
U14G A46G G71C G120A	-0.69
U7G C56G C86G U96G	-2.15
U32C C62A C82G G120C	-2.66
C4G G61U	-1
G39A G61A	-0.128
C20A G57C C62U	-1.88
C64U C88U C97U	-0.745
G57U G71C	-3.42
C99G U112C U133A	-6.59

Variant	polymerase ribozyme fitness (log ratio)
A6U G57A	-0.751
A29U U30G G57U G63C C72U G120A	-7.09
C76A A91G C115A	-0.508
C11G C13U A84U A91U G93C	-2.67
G44U G71A U130A	-2.12
A16U C40G C56U U112G	-0.767
C28A G45U C72A C115A	-6.12
C12G C49G U54A	-0.423
A84G C88U U116G C124A	-0.458
A5G A6C A43G C72U	-2.46
C12A C13U G61U U106A	-0.644
C11U G48A	-1.69
G39U G52A	-1.4
C53A C72U C86G C115U	-1.64
G61U U106C	0.11
U9C C12G U55C A83G G93A C102U	-5.25
C28U G60U	-1.24
G19A C20A C62U	-4.22
C4U U7C A43U C70U C85A U92G G120C	-5.06
C12G G19C	-1.64
C3U G57A C72U	-0.755
U9C G48U G52C G117U	-2.68
A46U C99U	-4.49
C8U C13A C85A U106C C123A	-0.442

Variant	polymerase ribozyme fitness (log ratio)
G52A G69U U78A C89U G128U	-2.93
G60A U116C	-0.935
A2C G44A G113A	-4.5
C34G C72A U106G A119U	-7.42
U9A A46G C85U U125A	-1.94
G19U G69C	-4.45
C28G C53A C88U C124A	-1.3
G60C C88A U112A	-0.182
G47U C72G U81A	-3.46
C53U C123U	1.1
U78A U130G	-0.269
A5C C22G C56G C123U	-4.43
C56U C76A	-2.9
G39U U78C G120A	0.169
C53A C94U C104U U112C	1.78
C82A G110U C123U	-2.47
C15G G71U C72U A95U	-4.5
U14A C49U G52U A121U U125A	-1.22
U54G A75U C89U	-0.98
C12U C49G	-0.764
G23U C34A G47A C53G G110C U129G	-7.48
U59C G122A C123U G128C	-0.638
C28G U106A G117C	-5.9
